Laboratory results taken from the supplement of paper PMC11865577.

Key:
Test in all cases: pull-down binding Z-score (relative to library population); higher = stronger binding
[1] = test system: G-clamp-N3 (biotin conjugate); conditions: RNA library: Library-1 (pre-miRNA loops + repeats)
Procedure, shortened: (§1)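 Binding is given as a Z-score against the library mean and standard deviation, calculated after removing the beads-only signal and averaging barcoded replicate probes without their highest and lowest values. Cy5- or Cy3-end-labelled RNA library (1 μg) was heat-folded in phosphate/NaCl/KCl buffer and incubated 60 min at 25 °C with streptavidin beads bearing 100 pmol of biotin-conjugated small molecule. After three washes, RNA eluted in hot SDS was hybridised to a DNA barcode microarray for 20 h at 55.5 °C.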

[2] = test system: TO-N3 (biotin conjugate); conditions: RNA library: Library-2
Procedure, shortened: as §1

[3] = test system: TO-3-N3 (biotin conjugate); conditions: RNA library: Library-2
Procedure, shortened: as §1

[4] = test system: TO-N3-2 (biotin conjugate); conditions: RNA library: Library-2
Procedure, shortened: as §1

[5] = test system: TO-3-N3-2 (biotin conjugate); conditions: RNA library: Library-2
Procedure, shortened: as §1

Sequence	pull-down binding Z-score [1]	pull-down binding Z-score [2]	pull-down binding Z-score [3]	pull-down binding Z-score [4]	pull-down binding Z-score [5]
CAUGAUUUGGAAAAAUUACUG [hsa-mir-6128]	-0.888	-0.151	-0.174	-0.315	-0.0805
GGAUAAGAAUCAGUCAC [hsa-mir-217]	-0.462	-0.415	-0.334	-0.147	0.259
CUCAGGAAUUGGAUAAGCUUUUCUGAG [hsa-mir-5194]	0.541	-0.399	-0.212	-0.323	-0.272
UGGGCAGUUCUUCUGCUGG [hsa-mir-1587]	0.403	0.149	0.21	0.377	0.0756
UGUGUUCAGUGGAACCAAGGUAAACACA [hsa-mir-624]	1.58	1.56	1.29	1.22	0.95
ACCACCCAGGCCUUAUGGCUUCAUA [hsa-mir-7974]	-1.68	0.233	-0.102	0.0927	-0.0756
CACGAGAUACCAGUGUGCACUUGUG [hsa-mir-542]	-0.858	-0.441	-0.51	0.103	-0.425
UUUCUGUUGUCUAAAAGAAGAGAAA [hsa-mir-518a-2]	0.832	0.171	0.159	-0.273	-0.0883
GGCUGCAGGCCCGGCCCCUCUC [hsa-mir-6787]	0.112	1.1	0.378	1.59	0.126
CCUGCCUGCCCUCCAGGUCAUGUUCCAGUGUCCCACAGAUGCAGCACCACGG [hsa-mir-6075]	-0.799	0.616	0.0521	1.54	0.186
UGGUAUCCUGACCG [hsa-mir-1973]	-0.747	0.408	0.627	0.287	-0.269
UUUAGUAUGCCACAUUUCUAAA [hsa-mir-4282]	-1.54	-0.757	-0.601	-0.699	-0.374
ACGAGAGUGAGUAGCAGGUCUC [hsa-mir-128-2]	2.31	0.627	-0.117	1.51	0.361
CUUACUGCCCGGGCCGCCCUCAGUAA [hsa-mir-212]	-1.81	1.17	0.545	1.45	0.033
AUCGGUCGAGAGCGUCCUGGCUGAU [hsa-mir-3178]	0.173	0.526	0.18	1	-0.22
AUAUGAGCUUCAUUUAUACAUUUCAUAU [hsa-mir-556]	-0.528	-0.335	-0.0401	-1.01	-0.0541
AUGCCCCAGGUGACGUGCUGGGCU [hsa-mir-4526]	-0.192	0.495	0.205	0.888	0.0558
UGGAGGGGGUUUGUUUGCUUAUUCCCCUCU [hsa-mir-6737]	0.456	0.918	0.936	0.633	0.705
CUAUUCAGAAAUGUGGCCUGUGAUUAG [hsa-mir-1295a]	0.22	-0.0755	-0.00311	0.169	0.231
CAGGUGCCUCAAAGGGCAUCCCACCUG [hsa-mir-3151]	-0.124	-0.673	-0.578	0.0349	-0.452
GGUGCAAAGCCUGCCCGCCCC [hsa-mir-5090]	-0.81	0.254	-0.134	1.09	-0.136
CCAAGGUUGUGCUUUUAGGAAAUGUUGGCUGUCCUGCGG [hsa-mir-5739]	0.485	-0.157	-0.448	0.49	0.205
GGCGACUGGUGUCUAAUUUGUUUGUC [hsa-mir-4429]	0.682	-0.37	-0.313	-0.308	-0.265
CGAGUCUGAGCCUUUAAAAGCCACUCU [hsa-mir-1287]	-1.4	0.0262	-0.321	0.586	-0.012
AUGGAGGCUGCUUCUCCUCAGCAGCUGCCAUA [hsa-mir-3651]	0.277	-0.13	-0.15	0.366	-0.382

Sequence	pull-down binding Z-score [1]	pull-down binding Z-score [2]	pull-down binding Z-score [3]	pull-down binding Z-score [4]	pull-down binding Z-score [5]
UGAAGAAGAGUAUUGAUUGUGCUGUUCG [hsa-mir-6788]	0.592	0.494	0.425	0.16	-0.00107
AGGGGACACGGGCAAAGACUUGGGGGUUCCUGGGACCCUCAGACGUGUGUCCUCU [hsa-mir-877]	0.447	0.632	0.252	0.581	0.297
UUUUAUCAUUACUUUUAAUGGCAAAA [hsa-mir-548f-2]	0.854	0.761	1.12	-0.404	0.834
ACCAAAAAUGAUAUGGGU [hsa-mir-7977]	1.5	-0.532	-0.344	-0.381	0.11
GGAAUAGUGCUCCUGGUUGUUUC [hsa-mir-1180]	0.894	-0.303	-0.548	0.243	-0.353
AGAUGAAAUGCCUUUGAUUU [hsa-mir-3658]	-1.49	-0.715	-0.497	-0.505	-0.388
UUAUGUUUCUGAUCCGAAUAUAA [hsa-mir-208b]	0.538	-0.483	-0.229	-0.679	-0.345
UGUCAUUACUUUCAAUGGCA [hsa-mir-548h-2]	0.222	-0.978	-0.726	-1.22	-0.4
AGGACGGUGCGCCUUGUUUCCC [hsa-mir-3132]	-1.1	0.0408	-0.376	0.529	-0.0152
GUAGAUUUUAUGUCAC [hsa-mir-892b]	-0.748	-0.00927	-0.000191	0.0365	-0.156
UCCCCUAGCGCGCCUUCUGGAGA [hsa-mir-3188]	1.12	-0.0603	-0.271	0.507	-0.0116
CAUAUGUGUAACAGACAUACAUACAUACAUAUG [hsa-mir-3688-2]	-0.866	-1.02	-0.818	-1.31	-0.463
GUGCAGCUUGUACCUGCAC [hsa-mir-1293]	-0.00619	-0.0262	-0.154	-0.592	-0.574
AUUGAGUUACCUUUCUGACUUUCCCACU [hsa-mir-28]	-0.594	-0.0391	0.108	-0.279	0.0519
GCCCUGGGCCGGGCGAUGUCCGCUUGGGGG [hsa-mir-6090]	-0.223	1.11	0.811	1.41	0.149
CCACUACCGGUGA [hsa-mir-4658]	-0.573	-0.127	-0.207	-0.288	-0.309
CUGCUGCUGCUGCUGCUGCUGCUGCUGCUGCUGCUGCUGCUGCUGCUG [r(CUG)16]	2.5	0.778	-0.0148	1.37	-0.215
UGAAGCCCCGAGAUGCCUCACGUCUUCA [hsa-mir-6802]	-1.85	0.243	0.00057	0.573	-0.123
CUGUUCAGGAGGCUCUCAAUGUGUACA [hsa-mir-199a-1]	-0.113	0.947	0.518	0.656	0.404
CACCAGCCAGGCAUUGCUCAGCCCGUUUCCCUCUGGGGGAGCAAGGAGUGGUGCUGGGUUUGUC [hsa-mir-593]	-0.156	1.15	0.762	1.24	-0.0489
CAGCCAUGACCUGACCUUCUGUCUG [hsa-mir-4677]	-0.499	-0.0686	-0.163	0.513	-0.165
CUUCACUGGUGCAGUAAGAAG [hsa-mir-7853]	-0.0639	-0.253	-0.0978	-0.23	-0.195
UCUGUUUGUUUUCUCUUAAACA [hsa-mir-519d]	-0.0316	-0.828	-0.418	-0.847	-0.553
UGCCAUACUUUUAACGGCA [hsa-mir-548i-4]	-0.464	-1.09	-0.727	-1.06	-0.272
GCGGUUUUUGCCAUUACUUUUCAUUUUUACCAUUAAAAGUAAUGGCAAAAAGCAU [hsa-mir-548q]	-0.112	-1.09	-0.964	-0.56	0.225

Sequence	pull-down binding Z-score [1]	pull-down binding Z-score [2]	pull-down binding Z-score [3]	pull-down binding Z-score [4]	pull-down binding Z-score [5]
UUAUACCUGAUGCUCACGUAUAA [hsa-mir-208a]	-0.85	0.187	0.398	-0.742	-0.0463
CGUGCACGUACCUGUCACAUGUGUACG [hsa-mir-3939]	-0.021	-0.867	-0.72	-0.599	-0.599
GUUUCUAAAAAAAUAAAAAGUUAAAAAAAUUUAUGUUAACGUGUAAUGUGUUUACUAAUUUUUUUUUUUUUUUUUGGAGAC [hsa-mir-3908]	-1.28	-0.136	-0.27	-0.771	0.349
UGUGUGCUGAGAAAAUUCACACA [hsa-mir-5580]	-0.421	-0.125	0.00215	-0.274	0.149
CGCUGAUGUGCAUUCAACUCAUUCUCAGCA [hsa-mir-1468]	-1.2	0.0154	-0.116	0.000597	-0.226
AGCCCUGUUGUUGUCAGAUAGUGU [hsa-mir-550a-2]	-0.331	0.216	0.198	0.179	0.21
GCAUGCCC [hsa-mir-1178]	-0.547	0.287	0.196	0.552	0.000996
CCUCACCUGCUGAGAG [hsa-mir-3670-3_3670-2_3670-1_3670-4]	0.409	-0.143	-0.258	0.19	-0.133
GUGGGUUGUGAGGACUGAGGCCAGACCCAC [hsa-mir-181d]	1.5	-0.139	-0.504	0.803	-0.244
AUGGAGAACGCCCCCACCAGUUCCCAC [hsa-mir-6767]	-0.992	1.68	1.67	0.67	0.564
UUUUGUCUGA [hsa-mir-553]	-1.4	-0.549	-0.414	-0.491	-0.242
UUCUUUUUUCUGAAAUUCUUCAGGAAGGA [hsa-mir-3167]	-0.0544	0.0883	0.368	-0.017	0.823
AUAAUACGGAUUACGUUGUUA [hsa-mir-137]	-1.89	0.148	-0.188	-0.0367	-0.139
CUGUGAAUCCAAGAUCCACA [hsa-mir-4527]	-1.57	-0.39	-0.439	-0.241	-0.489
CGUAUGUGUAUAUAAAUGUAUACG [hsa-mir-1277]	0.912	-1.29	-0.965	-1.36	-0.547
CCUUCUACCAAGUUAAGCAUACUCAUUAGAAGG [hsa-mir-3914-2]	-0.275	0.418	0.653	-0.346	-0.151
UUUGCCGUUAAAAGUAAUGGCA [hsa-mir-548a-2]	-1.31	-0.368	-0.228	-0.106	-0.17
CAAACCGGACCUGAGCGUUUUG [hsa-mir-375]	-0.122	1.08	1.14	0.74	0.514
AUAGUUGUGGGGUAGUGAUUUUACCCUGUUCAGGAGAUAACUAU [hsa-let-7f-1]	-0.471	0.842	0.676	0.224	0.657
GGGUUCAAUAGAUUGCUUUAGCUGAAGCAAGCCU [hsa-mir-8054]	-0.803	0.00977	0.125	-0.201	0.131
ACAAUAUGCUAUUAUAAUCGUAUGGCAUUGU [hsa-mir-2355]	0.228	-1.18	-0.919	-0.994	-0.546
GAGACACUC [hsa-mir-6126]	-0.909	-0.502	-0.431	-0.469	-0.578
CUAAUCUCUUAGCACUGAAGAUUAG [hsa-mir-4671]	-0.0111	-0.125	0.0266	-0.473	-0.253
CUCUCUGUUGCUCUGAAGGAG [hsa-mir-346]	1.39	-0.183	-0.271	0.295	-0.318
